{"source": "the DeepSol protein solubility set"}
{"test": "soluble on expression in E. coli; label from the status in PepcDB or PDB records"}
{"sequence": "MILTFNPGKLERQEFFKELINYLWIHDDVTLRKIKSHFTDYSKIDRLLEEYINHGYILRQNKRYSLNLPFLSSLDGLVLDDLVFIDSDSQIYQLLQKRKFVTNLDNPTNHLVFVEETDFERNTLTLSNYFYKLTNGYPLSREQKKLYQLLGDVNSEYALKYMSSFILKFLRKDSVKQKRTVIFIQALELLGYISLNQDTTYRLNAKLDVEALKIYLT", "soluble on expression in E. coli": "not soluble"}
{"sequence": "MAHHHHHHMPLTCRSFCEWALAYMGTQEYTPSIIQQRNSMAAAERDPDDRNVLDFSTYEDYLDQQVTGEDLFYLEDQDAARKIVELGYKGKDVLSREEFEAAQYLARTGPLKRRESAEVITSAGKDVSDSPLLTALAKREELVRTGKLATVLFLRDYVSGQEVSAYIDYGYRLRSENFEAYFKKDKKLLPKRSDLSYYNWKTHTLFYNNSPTFQVLADSTLGLVMKHKRDRKAIHVDPNSPSPGENCSRTVVPCKDYLQAVIYDHVTRRKN", "soluble on expression in E. coli": "soluble"}
{"sequence": "AIACGDCVEKEYPNRGTTCLENGSFLLNFAGCAVCSKRDFMLITNRSLKEEDGEEIVTYDRIYHAVSVVWQS", "soluble on expression in E. coli": "soluble"}
{"sequence": "SAEHVLTMLNEHEVKFVDLRFTDTKGKEQHVTIPAHQVNAEFFEEGKMFDGSSIGGWKGINESDMVLMPDASTAVIDPFFADSTLIIRCDILEPGTLQGYDRDPRSIAKRAEDYLRATGIADTVLFGPEPEFFLFDDIRFGASISGSHVAIDDIEGAWNSSTKYEGGNKGHRPGVKGGYFPVPPVDSAQDIRSEMCLVMEQMGLVVEAHHHEVATAGQNEVATRFNTMTKKADEIQIYKYVVHNVAHRFGKTATFMPKPMFGDNGSGMHCHMSLAKNGTNLFSGDKYAGLSEQALYYIGGVIKHAKAINALANPTTNSYKRLVPGYEAPVMLAYSARNRSASIRIPVVASPKARRIEVRFPDPAANPYLCFAALLMAGLDGIKNKIHPGEPMDKNLYDLPPEEAKEIPQVAGSLEEALNALDLDREFLKAGGVFTDEAIDAYIALRREEDDRVRMTPHPVEFELYYSV", "soluble on expression in E. coli": "soluble"}
{"sequence": "MINKLDNLNEEVANQIFTVFQNSYKIEAQLIGTLNFPPLLRSAKDIENSKTLFYGFSENECLAAVIEIVLENKQLDINSLTVDPNYFRKGIANKLITYILDKFYFSEAIVETAVVNTPAINLYKKHGFVEFKRWIPSHGIEKLAMSVKATL", "soluble on expression in E. coli": "not soluble"}
{"sequence": "YFKEKKIHPEAEMFDNRGFGVVAMMGLPLAGKDTYIKENFKNINVISLDDIREELNISSKRNSGKVAAIAISRAKQLLRRKESFIWNATNLRRENRQKLIRLCTAYGAKLKFIYLEVPYRELLSRNKMRSRYVPVEVINKMIRKMDMLEGEEIC", "soluble on expression in E. coli": "not soluble"}
{"sequence": "MTERLLVGVIVGSHGVRGLVRVKSFTQDEMALCDYGPLSDETGTRRFAVEVRNQAKGVVICQIPGVSDRTAADALKGTRLFLDRAALPADALEEDEYYHADLIGLPVDLVDGGRLGVVHSVHDFGAGDMLEVTLAQGRRSVLLPFTKAVVPLVDVKAGRLVADPPLGLLDDTRPPAGVEGEVEEDPGVGIDEDGDGKGGASLEHHHHHH", "soluble on expression in E. coli": "soluble"}
{"sequence": "MGSDKIHHHHHHMRNLDITTLRSFVAVADTGGVTRAASFLHLTQSAVSMQLKRLEEMLGVELLDRSGRNIGLTSAGEQLLGFARKMLSLNDEIITRLTDQAFEGEVTLGVPHDVVHPVIPMVMQRFNVQFPRVKVNLCTSNTRDLKMDFAQGRFDLIVTTETTASEGGEVIHQMPLRWIGALGGQTWRQRPLRIGFCRNCIFRGLATAALDDAGIPWEMAVDSESDRTVEATVSADLAVGVLLEGTQPAHQQVIDHGGSLPQLPVQHINLYGAERSRAQYVDHLASLIRQGFAGLSQPGLRAVGTEMVSAPVQLGVV", "soluble on expression in E. coli": "not soluble"}
{"sequence": "MSLGLNILKTLRSHRVSEGVSNSDTHYELTSALIKSLRGSDIDASIYYLARLIQGGEEPAFLARRMVIFASEDIGNANPNALNLATNVMLAVSKIGYPEARIILAQCAVYLASSPKSNSSYKAINDAIEFVENRPALPVPKYLINTDKAKSEYLYPHDFGGWVEQKYMSTQVKFYKSNAIGFEKTLDEWITKLKESYNEKEGHHHHHH", "soluble on expression in E. coli": "soluble"}
{"sequence": "MAHHHHHHMTTMARVDETLARFKGKSPRDSYKQVCGELDVHMQREIYAALPEKPMAWHHIYTLDLEKALLGTKGCMAMLPLITVSTSMRKLSLRSCGLSDEFVIQLCAVLQSHPSLRSVDISDNELVTVYSAPHIISVMRNNSNMVLFDVYNTHVGSNVGDIIAKLGQRNLDNVLHYYEDRYFRMKNLFNYMDADGTGWVVLKSLVLNCPYPVLQEQFVERIATKQPRKRSDNTISINTFLQLVYMNYKTEAEIGTYSNKTIDEPYVFMVANWKQLLYAVERYNARAAAMGDGQGPHPPVQLPDNFHRWRLRDYIITPDDADALVEGAVQLIEHSSAMAEGEPELNESGERAEPDAEVDSDKETAENAAEAAPLVIPITILLRAAKSVLVLPPSVAKPSYSFYTDRDAAYVPEILRNGSRLFSVSRLSCLFSGGASTTGDSASSPDVLQDSADRPHTFSLPASVVKMVVDFFNKEHKKLPTKKQSMIPDSPQTRRDKAMEKAAIPVPTFLSAEFVSDLERVCPRFLADYYSRHALLIEDGTITLQEMVNVLDEMYAQCRIDRIISLADIKAMPDPMKDKSLVSFVTAHFADRDEDISFLEPFNDVVAY", "soluble on expression in E. coli": "soluble"}
{"sequence": "MNIATRPADYWQAIIFDFDGVIVESGDIKAQAFAELYRHHGETIAQAAVTYHRANGGMSRYLKFHYFQQNLLNYPPLTKEEEQELDRRFSELVMNAVISCQPVAGAEALLHRMVDQIPLFVASGTPESELRIIVEQRDLSRYFTEVRGSPRLKETLVADILSAYPLVPERVLMIGDALVDYESAHQNGIAFLGRVRPGDDNPFPESVEIVPDLCPVAI", "soluble on expression in E. coli": "soluble"}
{"sequence": "MLTTLAISNYRTLREIVLPLGRLNVVTGANGSGKSNLYKALRLLAQTAQGGVVNALALEGGLDSCFWAGPENLTKGMLAGDTPIEATVRQAPKRLKLGFAGEDFSYLIELGLPKPDSTTLFGLDPQIKREAIWNGAKYRPASVLVERRGPMVKSRSQDGQGWITLSAHLQSSDSIFTELADPERSPEVLKLRDSIRAWRFYDHFRTDTDAPARRPQLGTATPVLHHDGRDLPSAIQTIFEIGDKSAFDHAVSDAFPGAKVRITPQAGGILQLEFQQQGLLRPLYASELSDGTLRYLLLIAALLTPRPPELMVLNEPETSLHPDLLPALARLIAKASEVCQLWVVSHANRLINALNQFEECNTLALDKTLGQTQILGQDLLNTPSWLWQNRLEHHHHHH", "soluble on expression in E. coli": "soluble"}
{"sequence": "SKAQEKGEAISLAFKGVKAEFLKRPEADVHFVCNDGHVIDEMLDHTIATGERVNRDVKIIALCPSLHGQEPMAEFALTLSIKKAAQHTKKAA", "soluble on expression in E. coli": "not soluble"}
{"sequence": "MRQNDKIMCILENRKKRDRKNLCRAINDFQQSFQKPETRREFDLSDPLALKKDLPARQSDNDVRNTISGMQKFMGEDLNFHERKKFQEEQNREWSLQQQREWKNARAEQKCAEALYTETRLQFDETAKHLQKLESTTRKAVCASVKDFNKSQAIESVERKKQEKKQEQEDNLAEITNLLRGDLLSENPQQAASSFGPHRVVPDRWKGMTQEQLEQIRLVQKQQIQEKLRLQEEKRQRDLDWDRRRIQGARATLLFERQQWRRQRDLRRALDSSNLSLAKEQHLQKKYMNEVYTNQPTGDYFTQFNTGSR", "soluble on expression in E. coli": "not soluble"}
{"sequence": "MVYTVDFKEVATIGLESSPVAPALAGLRANEARYFWNKYKHRFTTVPASEAPETLAWIEKILLERELHFPYKPLEISSFTLDGIKMAYVFYENGLAVNVMYTLAEEGKRAVGFKLSDGMAIPAEFEGKFKFARQKSKLAGTIRGSYFVIKGTY", "soluble on expression in E. coli": "soluble"}
{"sequence": "MNPQLLRVTNRIIERSRETRSAYLARIEQAKTSTVHRSQLACGNLAHGFAACQPEDKASLKSMLRNNIAIITSYNDMLSAHQPYEHYPEIIRKALHEANAVGQVAGGVPAMCDGVTQGQDGMELSLLSREVIAMSAAVGLSHNMFDGALFLGVCDKIVPGLTMAALSFGHLPAVFVPSGPMASGLPNKEKVRIRQLYAEGKVDRMALLESEAASYHAPGTCTFYGTANTNQMVVEFMGMQLPGSSFVHPDSPLRDALTAAAARQVTRMTGNGNEWMPIGKMIDEKVVVNGIVALLATGGSTNHTMHLVAMARAAGIQINWDDFSDLSDVVPLMARLYPNGPADINHFQAAGGVPVLVRELLKAGLLHEDVNTVAGFGLSRYTLEPWLNNGELDWREGAEKSLDSNVIASFEQPFSHHGGTKVLSGNLGRAVMKTSAVPVENQVIEAPAVVFESQHDVMPAFEAGLLDRDCVVVVRHQGPKANGMPELHKLMPPLGVLLDRCFKIALVTDGRLSGASGKVPSAIHVTPEAYDGGLLAKVRDGDIIRVNGQTGELTLLVDEAELAAREPHIPDLSASRVGTGRELFSALREKLSGAEQGATCITF", "soluble on expression in E. coli": "soluble"}
{"sequence": "NRGVTGGFGITQDITERKKVEEALRISNIYNRSLIEASPDPLVTIGQDGKITDVNNSTETVTGYSRDELIGTDFSDYFTEPERAKKGYQHVFLKGFVKDYPLEIQHKDGRVTQVLYNASVYRDESGEVIGVFAAARD", "soluble on expression in E. coli": "not soluble"}
{"sequence": "MDKQIGFIGCGNMGMAMIGGMINKNIVSSNQIICSDLNTANLKNASEKYGLTTTTDNNEVAKNADILILSIKPDLYASIINEIKEIIKNDAIIVTIAAGKSIESTENAFNKKVKVVRVMPNTPALVGEGMSALCPNEMVTEKDLEDVLNIFNSFGQTEIVSEKLMDVVTSVSGSSPAYVYMIIEAMADAAVLDGMPRNQAYKFAAQAVLGSAKMVLETGIHPGELKDMVCSPGGTTIEAVATLEEKGLRTAIISAMQRCTQKSVELSGQTKKLEHHHHHH", "soluble on expression in E. coli": "soluble"}
{"sequence": "MGSDKIHHHHHHLGESGKNFDHRRGWVESRLFELEAVFAIDVAAFAVMSNHLHVVLRIDIETANCWTDREVLEQWHKLFNGDEITQKFVKGEVVETHEVLRLKHSIATYRSRLCDISWFMRCLNEPIARQANQEDSCTGRFWEGRFKSQALLDEAAVLACMAYVDLNPIRAKMASTPEQSDHTSIQLRIQAALRGEQPISLLPFIGNERKNQPKGIAFSLQDYLELVDDTGRIIRNDKHGAISTNSAKLLTRLNIFQENWLKLTTEFGKLFHGPVGTLQELTSYCEHLEKRRRHFASCCQHLMAS", "soluble on expression in E. coli": "not soluble"}
{"sequence": "VDNVFIVGHRKLDMDALGSAVGMQFFAGNIIENSFAVYNPDEMSPDIERAIERLQADGKTRLISVSQAMGLVTPRSLLVMVDHSKISLTLSKEFYEQFQNVIVVDHHRRDDDFPDNAILTFIESGASSAAELVTELIQFQNAKKCLNKIQASVLMAGIMLDTKNFSTRVTSRTFDVASYLRSKGSDSVEIQNISATD", "soluble on expression in E. coli": "not soluble"}
{"sequence": "GSHMKVLLLGFEFLPVKVGGLAEALTAISEALASLGHEVLVFTPSHGRFQGEEIGKIRVFGEEVQVKVSYEERGNLRIYRIGGGLLDSEDVYGPGWDGLIRKAVTFGRASVLLLNDLLREEPLPDVVHFHDWHTVFAGALIKKYFKIPAVFTIHRLNKSKLPAFYFHEAGLSELAPYPDIDPEHTGGYIADIVTTVSRGYLIDEWGFFRNFEGKITYVFNGIDCSFWNESYLTGSRDERKKSLLSKFGMDEGVTFMFIGRFDRGQKGVDVLLKAIEILSSKKEFQEMRFIIIGKGDPELEGWARSLEEKHGNVKVITEMLSREFVRELYGSVDFVIIPSYFEPFGLVALEAMCLGAIPIASAVGGLRDIITNETGILVKAGDPGELANAILKALELSRSDLSKFRENCKKRAMSFSWEKSAERYVKAYTGSIDRAFDFIL", "soluble on expression in E. coli": "soluble"}
{"sequence": "MPRPALRSRSLRRVYVKLPSGKTVIHYERKRNDIAICAICKKPLHGVKTNFLHKYSKSEKRPERPFGGYLCSSCLTQLIKATVRQQLQ", "soluble on expression in E. coli": "soluble"}
{"sequence": "SAETEALSKLREDFRMQNKSVFILGASGETGRVLLKEILEQGLFSKVTLIGRRKLTFDEEAYKNVNQEVVDFEKLDDYASAFQGHDVGFCCLGTTRGKAGAEGFVRVDRDYVLKSAELAKAGGCKHFNLLSSKGADKSSNFLYLQVKGEVEAKVEELKFDRYSVFRPGVLLCDRQESRPGEWLVRKFFGSLPDSWARGHSVPVVTVVRAMLNNVVRPRDKQMELLENKAIHDLGKAHGSLKP", "soluble on expression in E. coli": "soluble"}
